Patent US20180037644A1 (Pfizer, published 2018)

Tests used:
Assay in all cases: SPR, IL-33 amine-coupled to CM5, Fab in solution, 37 C
[1] = target: T1, cynomolgus monkey IL-33 (cys mut) (cynomolgus monkey)
T1 construct: Variant in which the three cysteine residues are serine; N-terminal Met and C-terminal His6 in the entry; also called cyno IL-33; cyno IL-33 (cys mut)
T1 chain: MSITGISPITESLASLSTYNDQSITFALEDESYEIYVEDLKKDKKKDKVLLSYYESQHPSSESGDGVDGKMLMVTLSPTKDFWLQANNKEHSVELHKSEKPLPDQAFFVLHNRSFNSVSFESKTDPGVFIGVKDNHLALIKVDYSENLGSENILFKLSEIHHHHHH
Description: (§1) Biacore kinetic assays were conducted at 37° C. at a collection rate of 1 Hz on a Biacore T200 instrument (GE Healthcare). Human IL33 (mm2), cynomolgus monkey IL-33, and reduced huIL33 wt were covalently coupled to a CM5 sensor chip (catalogue number BR100530, GE Healthcare) using an amine coupling kit (catalogue number BR100050, GE Healthcare) according to the manufacturer's protocol. […] The dilution and running buffer was HBS-EP+(10 mM HEPES pH 7.4, 0.15M NaCl, 3 mM EDTA, 0.05% P-20). Rate constants and affinities were determined by fitting the resulting sensorgram data to a 1:1 model in Biacore T200 Evaluation software version 1.0 (GE Healthcare).

[2] = target: T2, human IL-33 WT, reduced with DTT (human, UniProt O95760 112-270)
T2 construct: Wild-type cysteines, FLAG tag in the entry; reduced with 3 mM DTT before use; also called huIL33 wt; hu IL-33 (WT + DTT)
T2 sequence: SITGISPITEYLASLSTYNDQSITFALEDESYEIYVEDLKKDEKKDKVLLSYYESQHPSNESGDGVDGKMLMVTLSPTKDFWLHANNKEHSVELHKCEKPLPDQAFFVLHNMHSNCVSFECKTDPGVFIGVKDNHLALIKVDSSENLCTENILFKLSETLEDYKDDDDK
Description: as §1

[3] = target: T3, human IL-33 (mm2) (human, UniProt O95760 112-270)
T3 construct: Variant in which all four cysteine residues are serine; the entry carries an N-terminal Met and a C-terminal His6; Biotinylated in some assays; also called hIL-33 (mm2); huIL-33 (mm2)
T3 chain: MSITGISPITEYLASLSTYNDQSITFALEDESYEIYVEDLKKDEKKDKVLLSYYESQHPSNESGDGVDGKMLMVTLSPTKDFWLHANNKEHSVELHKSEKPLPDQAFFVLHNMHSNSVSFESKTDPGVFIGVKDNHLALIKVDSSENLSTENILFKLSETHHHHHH
Description: as §1

B1: 7E8 CDR graft Fab (Fab, V domains shown)
VH: EVQLVESGGGLVQPGGSLRLSCAASGFTFSSYWMYWVRQAPGKGLEWVASITPNGGNTYYPDSVKGRFTISRDNAKNSLYLQMNSLRAEDTAVYYCARGHYYYTSYSLGYWGQGTLVTVSS
VL: DIQMTQSPSSLSASVGDRVTITCKASQNINKHLDWYQQKPGKAPKLLIYFTNNLQTGVPSRFSGSGSGTDFTLTISSLQPEDFATYYCFQYNNGWTFGGGTKVEIKR
notes: also called 7E8 Fab; CDR grafted-7E8 Fab
Work on B1 yielded a Kd [1] of 14.4 pM, a koff [1] of 4.07e-05 s⁻¹ and a kon [1] of 2.81e+06 M⁻¹ s⁻¹. The Kd [2] was 19.1 pM, the koff [2] was 5.79e-05 s⁻¹ and the kon [2] was 3.05e+06 M⁻¹ s⁻¹. The Kd [3] was 15.5 pM, the koff [3] was 4.17e-05 s⁻¹ and the kon [3] was 2.74e+06 M⁻¹ s⁻¹.
